Experimental data from patent US8389575B2, “Control of enzymatic peracid generation” (E.I. du Pont de Nemours and Company, priority 2008, dated 2013).

Tests used:
[1] = Dependence of specific activity on pH for hydrolysis of triacetin by CE-7 esterases/perhydrolases (cell extracts of E. coli KLP18 transformants); format: biochemical; settings: 200 mM triacetin, 25° C.
Description: A cell extract of an E. coli transformant expressing perhydrolase from Thermotoga neapolitana (KLP18/pSW196), Thermotoga maritima MSB8 (KLP18/pSW207), Bacillus pumilus PS213 (KLP1S/pSW195), Bacillus subtilis BE1010 (KLP18/pSW189), Bacillus subtilis ATCC® 31954™ (KLP18/pSW194), or Bacillus licheniformis ATCC® 14580™ (KLP18/pSW191) was prepared by passing a suspension of cell paste (20 wt % wet cell weight) in 0.05 M potassium phosphate buffer (pH 7.0) containing dithiothreitol (1 mM) twice through a French press having a working pressure of 16,000 psi (˜110 MPa). The crude extract was then centrifuged at 20,000×g to remove cellular debris, producing a clarified cell extract that was assayed for total soluble protein (Bicinchoninic Acid Kit for Protein Determination, Sigma Aldrich catalog #BCA1-KT). A portion of the clarified Thermotoga maritima MSB8 or Thermotoga neapolitana perhydrolase-containing extract was additionally heated for 20 min at 75° C., followed immediately by cooling in an ice/water bath to 5° C. The resulting mixture was centrifuged to remove precipitated protein, and the supernatant collected and assayed for total soluble protein as before.
Reactions (10 mL total volume) containing triacetin (200 mM) and cell extract supernatant (prepared as described above) were run at 25° C. and at a pH between 4.5 and 10.0, using the buffers and buffer concentrations listed in Table 5. The concentration of extract total protein (with or without heat-treatment to denature and precipitate E. coli-derived protein) was chosen to produce an ca. 50 mM decrease in triacetin concentration over 30 min (typically from 0.025 mg/mL to 0.40 mg/mL of total extract protein, dependent on the perhydrolase). A control reaction for each reaction condition was run to determine the concentration of triacetin hydrolyzed in the absence of added extract protein. Samples (100 μL) were removed at predetermined times and immediately added to 297 μL of dd H2O and 3 μL of 6N HCL. The resulting solution was mixed, then filtered using a 30,000 NMWL filter (Millipore) using a microcentrifuge for 2 min at 12,000 rpm. An aliquot of the filtrate (100 μL) was added to 150 μL of 0.417 mM N,N-diethyl meta-toluamide (external standard) in acetonitrile, and the resulting solution analyzed for triacetin by HPLC using a Supelco Discovery C8 column (25 cm×4.0 mm, 5 um; Supelco #59353-U40) and an isocratic mobile phase of 40% acetonitrile/60% distilled water at a flow rate of 1 mL/min. Triacetin was measured by UV detection at 225 nm.

[2] = Peracetic acid production by perhydrolases, control by initial reaction pH in sodium citrate buffer; format: biochemical; settings: triacetin 100 mM, 0.050 mg/mL extract total protein, 25° C.
Description: A cell extract of a transformant expressing perhydrolase from Bacillus pumilus PS213 (KLP18/pSW195), Thermotoga maritima MSB8 (KLP18/pSW207), Thermotoga neapolitana (KLP18/pSW196), or Bacillus subtilis ATCC® 31954™ (KLP18/pSW194) was prepared by passing a suspension of cell paste (20 wt % wet cell weight) in 0.05 M potassium phosphate buffer (pH 7.0) containing dithiothreitol (1 mM) twice through a French press having a working pressure of 16,000 psi (˜110 MPa). The crude extract was then centrifuged at 20,000×g to remove cellular debris, producing a clarified cell extract that was assayed for total soluble protein (Bicinchoninic Acid Kit for Protein Determination, Sigma Aldrich catalog #BCA1-KT). The supernatant was frozen in dry ice and stored at −80° C.
Reactions (10 mL total volume) containing triacetin, hydrogen peroxide and centrifuged cell extract supernatant (prepared as described above) in 50 mM sodium citrate buffer (initial pH 7.2 or 6.5) were run at 25° C. A control reaction for each reaction condition was run to determine the concentration of peracetic acid produced by chemical perhydrolysis of triacetin by hydrogen peroxide in the absence of added extract protein (data not shown). Determination of the concentration of peracetic acid in the reaction mixtures was performed according to the method described by Karst et al., supra.

[3] = pH 7.0, potassium phosphate 0.15 M
[4] = pH 7.5, potassium phosphate 0.15 M
[5] = pH 8.0, potassium phosphate 0.20 M
[6] = pH 8.5, Tris(hydroxymethyl)aminomethane 0.20 M
[7] = pH 9.0, Tris(hydroxymethyl)aminomethane 0.20 M
[8] = initial pH 6.5, sodium citrate 50 mM, H2O2 100 mM
[9] = initial pH 6.5, sodium citrate 50 mM, H2O2 250 mM
[10] = initial pH 7.2, sodium citrate 50 mM, H2O2 100 mM
[11] = initial pH 7.2, sodium citrate 50 mM, H2O2 250 mM

Molecule	specific activity (mmol triacetin/min/mg total extract protein) ([1]; pH 5.5, sodium acetate 0.15 M)	specific activity (mmol triacetin/min/mg total extract protein) ([1]; pH 6.0, sodium citrate 0.15 M)	specific activity (mmol triacetin/min/mg total extract protein) ([1]; pH 6.5, sodium citrate 0.15 M)	specific activity (mmol triacetin/min/mg total extract protein) [1, 3]	specific activity (mmol triacetin/min/mg total extract protein) [1, 4]	specific activity (mmol triacetin/min/mg total extract protein) [1, 5]	specific activity (mmol triacetin/min/mg total extract protein) [1, 6]	specific activity (mmol triacetin/min/mg total extract protein) [1, 7]	specific activity (mmol triacetin/min/mg total extract protein) ([1]; pH 9.5, glycine 0.20 M)	PAA, 1 min (ppm) [2, 8] [ppm]	PAA, 5 min (ppm) [2, 8] [ppm]	PAA, 30 min (ppm) [2, 8] [ppm]	PAA, 1 min (ppm) [2, 9] [ppm]	PAA, 5 min (ppm) [2, 9] [ppm]	PAA, 30 min (ppm) [2, 9] [ppm]	PAA, 1 min (ppm) [2, 10] [ppm]	PAA, 5 min (ppm) [2, 10] [ppm]	PAA, 30 min (ppm) [2, 10] [ppm]	PAA, 1 min (ppm) [2, 11] [ppm]	PAA, 5 min (ppm) [2, 11] [ppm]	other results
Thermotoga neapolitana perhydrolase: acetyl xylan esterase with perhydrolase activity from Thermotoga neapolitana (SEQ ID NO: 14), cell extract of E. coli KLP18/pSW196 (protein, listed as Thermotoga neapolitana) MAFFDMPLEELKKYRPERYEEKDFDEFWRETLKESEGFPLDPVFEKVDFHLKTVETYDVTFSGYRGQRIKGWLLVPKLAEEKLPCVVQYIGYNGGRGFPHDWLFWPSMGYICFVMDTRGQGSGWMKGDTPDYPEGPVDPQYPGFMTRGILDPGTYYYRRVFVDAVRAVEAAISFPRVDSRKVVVAGGSQGGGIALAVSALSNRVKALLCDVPFLCHFRRAVQLVDTHPYVEITNFLKTHRDKEEIVFRTLSYFDGVNFAARAKVPALFSVGLMDTICPPSTVFAAYNHYAGPKEIRIYPYNNHEGGGSFQAIEQVKFLKRLFEEG	0 mmol triacetin/min/mg total extract protein	0.4 mmol triacetin/min/mg total extract protein	1.7 mmol triacetin/min/mg total extract protein	3.3 mmol triacetin/min/mg total extract protein	5.3 mmol triacetin/min/mg total extract protein	5.8 mmol triacetin/min/mg total extract protein	11.3 mmol triacetin/min/mg total extract protein	12.5 mmol triacetin/min/mg total extract protein	12.0 mmol triacetin/min/mg total extract protein	221	607	1925	434	1260	2016	798	1748	2500	1790	2860	specific activity (mmol triacetin/min/mg total extract protein) ([1]; pH 10.0, glycine 0.20 M): 0 mmol triacetin/min/mg total extract protein; PAA, 30 min (ppm) [2, 11]: 3820 ppm
Thermotoga maritima MSB8 perhydrolase: acetyl xylan esterase with perhydrolase activity from Thermotoga maritima MSB8 (SEQ ID NO: 16), cell extract of E. coli KLP18/pSW207 (protein, listed as Thermotoga maritima) MAFFDLPLEELKKYRPERYEEKDFDEFWEETLAESEKFPLDPVFERMESHLKTVEAYDVTFSGYRGQRIKGWLLVPKLEEEKLPCVVQYIGYNGGRGFPHDWLFWPSMGYICFVMDTRGQGSGWLKGDTPDYPEGPVDPQYPGFMTRGILDPRTYYYRRVFTDAVRAVEAAASFPQVDQERIVIAGGSQGGGIALAVSALSKKAKALLCDVPFLCHFRRAVQLVDTHPYAEITNFLKTHRDKEEIVFRTLSYFDGVNFAARAKIPALFSVGLMDNICPPSTVFAAYNYYAGPKEIRIYPYNNHEGGGSFQAVEQVKFLKKLFEKG	1.4 mmol triacetin/min/mg total extract protein	4.3 mmol triacetin/min/mg total extract protein	10.3 mmol triacetin/min/mg total extract protein	16.0 mmol triacetin/min/mg total extract protein	19.8 mmol triacetin/min/mg total extract protein	28.7 mmol triacetin/min/mg total extract protein	38.8 mmol triacetin/min/mg total extract protein	57.1 mmol triacetin/min/mg total extract protein	21.6 mmol triacetin/min/mg total extract protein	53	279	1540	95	742	2446	210	610	1995	635	1725	PAA, 30 min (ppm) [2, 11]: 3565 ppm
